According to US20250257338A1 (JCR PHARMACEUTICALS, published 2025):

B1: Fab-IDS (WT), fusion protein of wild-type hIDS and an anti-hTfR (Fab) antibody (Fab)
heavy: EVQLVQSGAEVKKPGESLKISCKGSGYSFMNYWLGWVRQMPGKGLEWMGDIYPGGDYPTYSEKFKVQVTISADKSISTAYLQLSSLKASDTAMYYCARSGNYDEVAYWGQGTLVTVSSASTKGPSVFPLAPSSKSTSGGTAALGCLVKDYFPEPVTVSWNSGALTSGVHTFPAVLQSSGLYSLSSVVTVPSSSLGTQTYICNVNHKPSNTKVDKKVEPKSCDKTHTGGGGSGGGGSGGGGSSETQANSTTDALNVLLIIVDDLRPSLGCYGDKLVRSPNIDQLASHSLLFQNAFAQQAVCAPSRVSFLTGRRPDTTRLYDFNSYWRVHAGNFSTIPQYFKENGYVTMSVGKVFHPGISSNHTDDSPYSWSFPPYHPSSEKYENTKTCRGPDGELHANLLCPVDVLDVPEGTLPDKQSTEQAIQLLEKMKTSASPFFLAVGYHKPHIPFRYPKEFQKLYPLENITLAPDPEVPDGLPPVAYNPWMDIRQREDVQALNISVPYGPIPVDFQRKIRQSYFASVSYLDTQVGRLLSALDDLQLANSTIIAFTSDHGWALGEHGEWAKYSNFDVATHVPLIFYVPGRTASLPEAGEKLFPYLDPFDSASQLMEPGRQSMDLVELVSLFPTLAGLAGLQVPPRCPVPSFHVELCREGKNLLKHFRFRDLEEDPYLPGNPRELIAYSQYPRPSDIPQWNSDKPSLKDIKIMGYSIRTIDYRYTVWVGFNPDEFLANFSDIHAGELYFVDSDPLQDHNMYNDSQGGDLFQLLMP
light: DIVMTQTPLSLSVTPGQPASISCRSSQSLVHSNGNTYLHWYLQKPGQSPQLLIYKVSNRFSGVPDRFSGSGSGTDFTLKISRVEAEDVGVYYCSQSTHVPWTFGQGTKVEIKRTVAAPSVFIFPPSDEQLKSGTASVVCLLNNFYPREAKVQWKVDNALQSGNSQESVTEQDSKDSTYSLSSTLTLSKADYEKHKVYACEVTHQGLSSPVTKSFNRGEC
modifications: N-linked sugar chains containing mannose-6-phosphate (M6P) on the asparagines at positions 221 and 255 of the hIDS portion (numbering of SEQ ID NO: 1)
notes: Humanized anti-hTfR Fab; Expressed in ExpiCHO cells
B2: Fab-IDS (m1), fusion protein of hIDS mutant muhIDS-1 (T223A, S257A) and an anti-hTfR (Fab) antibody (Fab)
heavy: EVQLVQSGAEVKKPGESLKISCKGSGYSFMNYWLGWVRQMPGKGLEWMGDIYPGGDYPTYSEKFKVQVTISADKSISTAYLQLSSLKASDTAMYYCARSGNYDEVAYWGQGTLVTVSSASTKGPSVFPLAPSSKSTSGGTAALGCLVKDYFPEPVTVSWNSGALTSGVHTFPAVLQSSGLYSLSSVVTVPSSSLGTQTYICNVNHKPSNTKVDKKVEPKSCDKTHTGGGGSGGGGSGGGGSSETQANSTTDALNVLLIIVDDLRPSLGCYGDKLVRSPNIDQLASHSLLFQNAFAQQAVCAPSRVSFLTGRRPDTTRLYDFNSYWRVHAGNFSTIPQYFKENGYVTMSVGKVFHPGISSNHTDDSPYSWSFPPYHPSSEKYENTKTCRGPDGELHANLLCPVDVLDVPEGTLPDKQSTEQAIQLLEKMKTSASPFFLAVGYHKPHIPFRYPKEFQKLYPLENIALAPDPEVPDGLPPVAYNPWMDIRQREDVQALNIAVPYGPIPVDFQRKIRQSYFASVSYLDTQVGRLLSALDDLQLANSTIIAFTSDHGWALGEHGEWAKYSNFDVATHVPLIFYVPGRTASLPEAGEKLFPYLDPFDSASQLMEPGRQSMDLVELVSLFPTLAGLAGLQVPPRCPVPSFHVELCREGKNLLKHFRFRDLEEDPYLPGNPRELIAYSQYPRPSDIPQWNSDKPSLKDIKIMGYSIRTIDYRYTVWVGFNPDEFLANFSDIHAGELYFVDSDPLQDHNMYNDSQGGDLFQLLMP
light: DIVMTQTPLSLSVTPGQPASISCRSSQSLVHSNGNTYLHWYLQKPGQSPQLLIYKVSNRFSGVPDRFSGSGSGTDFTLKISRVEAEDVGVYYCSQSTHVPWTFGQGTKVEIKRTVAAPSVFIFPPSDEQLKSGTASVVCLLNNFYPREAKVQWKVDNALQSGNSQESVTEQDSKDSTYSLSSTLTLSKADYEKHKVYACEVTHQGLSSPVTKSFNRGEC
B3: Fab-IDS (m2), fusion protein of hIDS mutant muhIDS-2 (N221Q, N255Q) and an anti-hTfR (Fab) antibody (Fab)
heavy: EVQLVQSGAEVKKPGESLKISCKGSGYSFMNYWLGWVRQMPGKGLEWMGDIYPGGDYPTYSEKFKVQVTISADKSISTAYLQLSSLKASDTAMYYCARSGNYDEVAYWGQGTLVTVSSASTKGPSVFPLAPSSKSTSGGTAALGCLVKDYFPEPVTVSWNSGALTSGVHTFPAVLQSSGLYSLSSVVTVPSSSLGTQTYICNVNHKPSNTKVDKKVEPKSCDKTHTGGGGSGGGGSGGGGSSETQANSTTDALNVLLIIVDDLRPSLGCYGDKLVRSPNIDQLASHSLLFQNAFAQQAVCAPSRVSFLTGRRPDTTRLYDFNSYWRVHAGNFSTIPQYFKENGYVTMSVGKVFHPGISSNHTDDSPYSWSFPPYHPSSEKYENTKTCRGPDGELHANLLCPVDVLDVPEGTLPDKQSTEQAIQLLEKMKTSASPFFLAVGYHKPHIPFRYPKEFQKLYPLEQITLAPDPEVPDGLPPVAYNPWMDIRQREDVQALQISVPYGPIPVDFQRKIRQSYFASVSYLDTQVGRLLSALDDLQLANSTIIAFTSDHGWALGEHGEWAKYSNFDVATHVPLIFYVPGRTASLPEAGEKLFPYLDPFDSASQLMEPGRQSMDLVELVSLFPTLAGLAGLQVPPRCPVPSFHVELCREGKNLLKHFRFRDLEEDPYLPGNPRELIAYSQYPRPSDIPQWNSDKPSLKDIKIMGYSIRTIDYRYTVWVGFNPDEFLANFSDIHAGELYFVDSDPLQDHNMYNDSQGGDLFQLLMP
light: DIVMTQTPLSLSVTPGQPASISCRSSQSLVHSNGNTYLHWYLQKPGQSPQLLIYKVSNRFSGVPDRFSGSGSGTDFTLKISRVEAEDVGVYYCSQSTHVPWTFGQGTKVEIKRTVAAPSVFIFPPSDEQLKSGTASVVCLLNNFYPREAKVQWKVDNALQSGNSQESVTEQDSKDSTYSLSSTLTLSKADYEKHKVYACEVTHQGLSSPVTKSFNRGEC

Tests used:
[1] = molecular target: T1, human TfR extracellular region with N-terminal histidine tag, hTfR-ECD (His tag) (human, UniProt P02786 87-760); assay: BLI (Octet RED96), hTfR-ECD (His tag) on Ni-NTA biosensor, 1:1 model
T1 construct: Loaded on the Ni-NTA biosensor in the BLI assay; 760 is the known length of human TfR, not a printed number; not shown: histidine tag at the N-terminus
Method: In addition, hTfR was adjusted to a concentration of 25 ng/ml, using HBS-P+ (1% BSA) to obtain an hTfR-ECD (His tag) solution.
(§1) The sample solution for hTfR affinity measurement was added to a 96-well plate, black (Greiner Bio-One International GmbH) at 200 μL/well. The hTfR-ECD (His tag) solution was added to predetermined wells at 200 μL/well. HBS-P+ (1% BSA) was added to wells for baseline, dissociation, and washing at 200 μL/well. 10 mM Glycine-HCl (pH 1.7) was added to wells for regeneration at 200 μL/well. 0.5 mM NiCl₂ (1% BSA) solution was added to wells for activation at 200 μL/well. This plate and a biosensor (Biosensor/Ni-NTA, ForteBio) were placed at predetermined positions in the Octet RED96.
Note that the measurement was carried out at a temperature of 25 to 30° C.

[2] = molecular target: T2, human mannose-6-phosphate receptor (cation-independent) domain 9 recombinant protein with C-terminal … (human, UniProt P11717 1219-1364); assay: BLI (Octet RED96), M6PR domain 9 (His tag) on Ni-NTA biosensor, 1:1 model
T2 construct: Loaded on the Ni-NTA biosensor; also called human M6PR; M6PR
Method: (§2) As the human M6PR, there was used a protein having the amino acid sequence represented by SEQ ID NO: 42, in which restriction enzyme-derived amino acids were added to both ends of the amino acid sequence corresponding to domain 9 from valine at the 1219th position to phenylalanine at the 1364th position from the N-terminus side in the amino acid sequence of a cation-independent mannose-6-phosphate receptor represented by SEQ ID NO: 41, and a histidine tag was further added to the C-terminus thereof.
(§3) In addition, human M6PR was adjusted to a concentration of […] with HBS-P+ to obtain an M6PR (His tag) solution.
as §1, with “M6PR” for “hTfR”, “M6PR” for “hTfR-ECD”, “HBS-P+” for “HBS-P+ (1% BSA)”, “NiCl₂” for “NiCl₂ (1% BSA)”

[3] = molecular target: T2, human mannose-6-phosphate receptor …; assay: BLI (Octet RED96), M6PR (His tag) on Ni-NTA biosensor
Method: as §2, §3
as §1, with “M6PR” for “hTfR”, “M6PR” for “hTfR-ECD”, “HBS-P+” for “HBS-P+ (1% BSA)”, “NiCl₂” for “NiCl₂ (1% BSA)”

T2 sequence (P11717 other isoform, or with tags, fused parts or gaps limits assumed): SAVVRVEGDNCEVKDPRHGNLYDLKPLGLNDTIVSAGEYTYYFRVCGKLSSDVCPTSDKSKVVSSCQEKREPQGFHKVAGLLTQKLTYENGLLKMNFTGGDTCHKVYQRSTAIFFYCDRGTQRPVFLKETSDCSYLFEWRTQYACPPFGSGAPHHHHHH
T1 sequence (P02786 other isoform, or with tags, fused parts or gaps): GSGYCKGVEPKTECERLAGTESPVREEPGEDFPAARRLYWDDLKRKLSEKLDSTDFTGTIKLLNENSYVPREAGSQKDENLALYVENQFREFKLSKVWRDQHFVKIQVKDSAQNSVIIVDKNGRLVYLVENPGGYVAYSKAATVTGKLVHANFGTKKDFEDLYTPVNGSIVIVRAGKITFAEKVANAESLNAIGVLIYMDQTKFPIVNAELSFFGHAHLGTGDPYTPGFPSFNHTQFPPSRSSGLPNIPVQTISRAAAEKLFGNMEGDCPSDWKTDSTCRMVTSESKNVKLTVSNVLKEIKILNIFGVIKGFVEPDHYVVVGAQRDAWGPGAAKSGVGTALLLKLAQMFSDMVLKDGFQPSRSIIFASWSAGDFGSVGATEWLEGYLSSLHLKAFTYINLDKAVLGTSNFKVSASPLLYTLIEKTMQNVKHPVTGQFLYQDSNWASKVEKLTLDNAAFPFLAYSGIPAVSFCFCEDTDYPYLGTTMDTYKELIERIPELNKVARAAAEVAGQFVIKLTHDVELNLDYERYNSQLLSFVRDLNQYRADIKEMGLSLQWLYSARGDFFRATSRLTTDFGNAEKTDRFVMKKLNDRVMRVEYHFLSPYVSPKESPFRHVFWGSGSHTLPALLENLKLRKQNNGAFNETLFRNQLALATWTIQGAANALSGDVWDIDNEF

Binder	Kd [1] [nM]	koff [1] [s⁻¹]	kon [1] [M⁻¹ s⁻¹]	Kd [2] [nM]	koff [2] [s⁻¹]	kon [2] [M⁻¹ s⁻¹]	binding result [3]
B1	0.67	0.000331	494000	2.32	0.000586	253000	–
B2	0.678	0.000331	489000	–	–	–	no binding
B3	0.661	0.00031	469000	–	–	–	no binding
